Patent US6890910B1, “Murd protein and gene of Pseudomonas aeruginosa” (Merck & Co., Inc., priority 1998, dated 2005)

Experiments:
[1] = biological target: recombinant MurD from E. coli (Escherichia coli, UniProt P14900); conditions: 350 μM UDP-N-acetyl-muramyl-L-alanine
Protocol: The ATP-dependent MurD activity was assayed by monitoring the formation of product ADP using the pyruvate kinase and lactate dehydrogenase coupled enzyme assay. The reaction was monitored spectrophotometrically.
Typically, the assay contained 100 mM BIS-TRIS-propane, pH 8.0, 200 μM NADH, 1 mM ATP, 20 mM PEP, 5 mM MgCl2, 1 mM DTT, 350 μM UDP-N-acetyl-muramyl-L-alanine, 1 mM D-glutamate, 33 units/ml of pyruvate kinase and 1660 units/ml of lactate dehydrogenase in a final volume of 200 or 400 μl. The mixture was incubated at 25° C. for 5 min and the reaction initiated by the addition of 1-10 μg of MurD.
Rates were calculated from the linear portions of the progress curves using the extinction coefficient for NADH, e=6220 cm^−1 M^−1. One unit of MurD activity is equal to 1 μmol of ADP formed per min at 25° C.

[2] = biological target: T1, recombinant MurD from P. aeruginosa (Pseudomonas aeruginosa, UniProt Q9HVZ9); test: ATP-dependent MurD activity, pyruvate kinase/lactate dehydrogenase coupled enzyme assay; type: biochemical; conditions: UDP-N-acetylmuramyl-L-ala 350 μM, D-glutamate 1 mM, ATP 1 mM, 200 μl at 25° C.
T1 construct: 6x His (pET-15b vector-encoded) (N); made in house; host or cells: E. coli BL21 (DE3)/pLysS
T1 sequence (Q9HVZ9 whole entry, looked up): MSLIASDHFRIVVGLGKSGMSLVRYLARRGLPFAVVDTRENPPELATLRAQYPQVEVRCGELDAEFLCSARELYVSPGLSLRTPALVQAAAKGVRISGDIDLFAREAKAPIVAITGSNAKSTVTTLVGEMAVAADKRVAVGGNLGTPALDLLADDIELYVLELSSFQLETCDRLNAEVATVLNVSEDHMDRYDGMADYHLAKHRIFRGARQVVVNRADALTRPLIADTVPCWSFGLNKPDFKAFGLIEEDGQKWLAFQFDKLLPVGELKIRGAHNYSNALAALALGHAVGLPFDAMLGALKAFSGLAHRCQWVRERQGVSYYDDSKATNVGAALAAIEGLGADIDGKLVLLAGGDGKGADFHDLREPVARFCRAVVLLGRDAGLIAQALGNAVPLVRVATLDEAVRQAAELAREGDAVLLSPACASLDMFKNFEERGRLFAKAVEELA
Source text: The reaction was monitored spectrophotometrically.

Sequence of recombinant MurD from E. coli (P14900 whole entry): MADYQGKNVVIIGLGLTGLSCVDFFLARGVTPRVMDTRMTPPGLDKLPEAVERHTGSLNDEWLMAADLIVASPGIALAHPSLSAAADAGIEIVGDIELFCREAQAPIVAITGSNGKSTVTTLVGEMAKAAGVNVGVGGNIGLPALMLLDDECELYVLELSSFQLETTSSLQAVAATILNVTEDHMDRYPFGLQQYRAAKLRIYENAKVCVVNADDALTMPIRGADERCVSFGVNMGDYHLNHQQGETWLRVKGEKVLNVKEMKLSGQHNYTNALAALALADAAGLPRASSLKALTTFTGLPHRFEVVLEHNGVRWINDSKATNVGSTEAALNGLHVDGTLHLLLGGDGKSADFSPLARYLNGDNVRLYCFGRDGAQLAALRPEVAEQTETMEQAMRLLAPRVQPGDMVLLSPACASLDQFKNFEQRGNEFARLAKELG

Molecule: CC(=O)N[C@H]1C(OP(=O)(O)OP(=O)(O)OC[C@H]2O[C@@H](n3ccc(=O)[nH]c3=O)[C@H](O)[C@@H]2O)O[C@H](CO)[C@@H](O)[C@@H]1O[C@H](C)C(=O)N[C@H](C)C(=O)O (stereo partly drawn) [UDP-N-acetyl-muramyl-L-alanine]
- substrate inhibition [1]: substrate inhibition of the E. coli MurD occurs

B1: P. aeruginosa MurD: Recombinant UDP-N-acetylmuramyl-L-alanine:D-glutamate ligase of Pseudomonas aeruginosa, over-produced as His-tagged fusion protein in E. coli (protein, listed as Pseudomonas aeruginosa)
chain: T1 sequence (Q9HVZ9 whole entry, looked up)
modifications: His tag
notes: Recombinant UDP-N-acetylmuramyl-L-alanine:D-glutamate ligase of Pseudomonas aeruginosa, over-produced as His-tagged fusion protein in E. coli
- units ([2]; 0.0015 mg protein): 0.0047 µmol/min
- Specific activity [2]: 3.12 (μmol/min)/mg
